B1: General transcription factor IIE subunit 1 (Homo sapiens), P29083 (parent)
chain: MADPDVLTEVPAALKRLAKYVIRGFYGIEHALALDILIRNSCVKEEDMLELLKFDRKQLRSVLNNLKGDKFIKCRMRVETAADGKTTRHNYYFINYRTLVNVVKYKLDHMRRRIETDERDSTNRASFKCPVCSSTFTDLEANQLFDPMTGTFRCTFCHTEVEEDESAMPKKDARTLLARFNEQIEPIYALLRETEDVNLAYEILEPEPTEIPALKQSKDHAATTAGAASLAGGHHREAWATKGPSYEDLYTQNVVINMDDQEDLHRASLEGKSAKERPIWLRESTVQGAYGSEDMKEGGIDMDAFQEREEGHAGPDDNEEVMRALLIHEKKTSSAMAGSVGAAAPVTAANGSDSESETSESDDDSPPRPAAVAVHKREEDEEEDDEFEEVADDPIVMVAGRPFSYSEVSQRPELVAQMTPEEKEAYIAMGQRMFEDLFE

The variants in the first test derive from B1. The note with it: with tf2h1_human GTF2H1, P32780.
tf2h1_human GTF2H1, P32780, sequence (P32780 whole entry): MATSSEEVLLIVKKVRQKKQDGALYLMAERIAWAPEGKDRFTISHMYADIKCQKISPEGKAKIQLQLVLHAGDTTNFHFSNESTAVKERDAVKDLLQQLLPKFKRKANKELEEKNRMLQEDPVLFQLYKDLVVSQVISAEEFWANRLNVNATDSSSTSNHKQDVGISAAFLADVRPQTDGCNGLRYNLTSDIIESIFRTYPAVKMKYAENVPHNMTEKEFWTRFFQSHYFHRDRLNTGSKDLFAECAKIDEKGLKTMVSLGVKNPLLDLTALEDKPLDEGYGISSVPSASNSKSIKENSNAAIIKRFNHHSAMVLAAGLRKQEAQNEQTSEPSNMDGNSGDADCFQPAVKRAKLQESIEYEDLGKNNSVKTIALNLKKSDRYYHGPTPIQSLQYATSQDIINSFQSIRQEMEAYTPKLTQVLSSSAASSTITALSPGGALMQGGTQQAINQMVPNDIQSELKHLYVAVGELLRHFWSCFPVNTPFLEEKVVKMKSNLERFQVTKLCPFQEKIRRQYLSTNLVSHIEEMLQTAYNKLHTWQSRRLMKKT
In the case of V390A, the “effect of a mutation on the interaction” value is “disrupting interaction”.

Variants of B1 are the subject of a further test. The note with it: with tf2h1_human GTF2H1, P32780. The source holds these as a separate data set.
As to F387A, the “effect of a mutation on the interaction” value is given as “disrupting interaction”.

Source of the values: IntAct's records for PubMed 18354501.
